Measured values: patent US20200079833A1 (AstraZeneca / MedImmune, published 2020)
Starred links: 1 amine or outer side, 2 acyl side, 3 side chain; linkers in the order of their positions; H or OH if unused. Non-standard residues stand in square brackets, D forms with d. Groups on a side chain read outwards from the residue. Primed or numbered codes have the meaning given here. No end group written: not given here. *: point of attachment. γGlu = O=C(O)[C@H](CCC(=O)[*:2])N[*:1]; Stearoyl = CCCCCCCCCCCCCCCCCC(=O)*; αMeF = C[C@](N)(Cc1ccccc1)C(=O)O; αMeK = C[C@](N)(CCCCN)C(=O)O; αMeS = C[C@](N)(CO)C(=O)O; PEG2′ = not defined here; Aib = CC(C)(N)C(=O)O; Ahx = NCCCCCC(=O)O

T1: glucose-dependent insulinotropic peptide (gastric inhibitory polypeptide) receptor (GIPR) (human, UniProt P48546 22-466)
T1 sequence (looked up): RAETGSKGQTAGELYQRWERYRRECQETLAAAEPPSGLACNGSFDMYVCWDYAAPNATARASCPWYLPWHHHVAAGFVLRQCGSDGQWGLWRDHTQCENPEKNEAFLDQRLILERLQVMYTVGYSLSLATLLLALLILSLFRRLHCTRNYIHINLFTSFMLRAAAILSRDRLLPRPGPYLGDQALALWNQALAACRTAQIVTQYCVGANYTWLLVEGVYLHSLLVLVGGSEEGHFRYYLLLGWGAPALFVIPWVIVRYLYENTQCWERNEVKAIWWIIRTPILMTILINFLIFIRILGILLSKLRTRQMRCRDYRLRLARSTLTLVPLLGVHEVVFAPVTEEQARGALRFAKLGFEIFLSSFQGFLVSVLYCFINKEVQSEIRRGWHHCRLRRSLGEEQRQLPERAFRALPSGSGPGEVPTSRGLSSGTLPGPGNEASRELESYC

T2: GLP-1R (INS1e assay) (UniProt P32301 22-463, limits assumed)
T2 sequence (looked up): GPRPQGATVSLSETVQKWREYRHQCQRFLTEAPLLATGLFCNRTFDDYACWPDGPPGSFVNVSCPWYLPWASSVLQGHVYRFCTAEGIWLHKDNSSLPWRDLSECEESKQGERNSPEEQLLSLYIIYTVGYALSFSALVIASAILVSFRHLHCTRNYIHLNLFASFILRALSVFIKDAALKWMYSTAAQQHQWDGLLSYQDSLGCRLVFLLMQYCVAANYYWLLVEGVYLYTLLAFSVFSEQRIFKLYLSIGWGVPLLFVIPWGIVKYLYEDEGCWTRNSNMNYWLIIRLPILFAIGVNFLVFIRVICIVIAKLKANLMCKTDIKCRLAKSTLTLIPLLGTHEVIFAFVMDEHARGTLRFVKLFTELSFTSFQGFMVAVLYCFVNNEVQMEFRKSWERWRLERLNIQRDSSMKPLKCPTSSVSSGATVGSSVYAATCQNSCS

B1: SEQ ID NO 150 (peptide)
peptide: H[Aib]EGS[αMeF]TSDV[αMeS]S[αMeF]LEGEAAK([Ahx-Ahx-Stearoyl])E[αMeF]IA[αMeF]VV[αMeK]GG-NH2
modifications: N-terminus assumed
SMILES: CCCCCCCCCCCCCCCCCC(=O)NCCCCCC(=O)NCCCCCC(=O)NCCCC[C@H](NC(=O)[C@H](C)NC(=O)[C@H](C)NC(=O)[C@H](CCC(=O)O)NC(=O)CNC(=O)[C@H](CCC(=O)O)NC(=O)[C@H](CC(C)C)NC(=O)[C@](C)(Cc1ccccc1)NC(=O)[C@H](CO)NC(=O)[C@](C)(CO)NC(=O)[C@@H](NC(=O)[C@H](CC(=O)O)NC(=O)[C@H](CO)NC(=O)[C@@H](NC(=O)[C@](C)(Cc1ccccc1)NC(=O)[C@H](CO)NC(=O)CNC(=O)[C@H](CCC(=O)O)NC(=O)C(C)(C)NC(=O)[C@@H](N)Cc1c[nH]cn1)[C@@H](C)O)C(C)C)C(=O)N[C@@H](CCC(=O)O)C(=O)N[C@@](C)(Cc1ccccc1)C(=O)N[C@H](C(=O)N[C@@H](C)C(=O)N[C@@](C)(Cc1ccccc1)C(=O)N[C@H](C(=O)N[C@H](C(=O)N[C@@](C)(CCCCN)C(=O)NCC(=O)NCC(N)=O)C(C)C)C(C)C)[C@@H](C)CC
B2: SEQ ID NO 147 (peptide)
peptide: H[Aib]EGS[αMeF]TSDV[αMeS]S[αMeF]LEGEAAK([γGlu-γGlu-Stearoyl])E[αMeF]IA[αMeF]VV[αMeK]GG-NH2
modifications: N-terminus assumed
SMILES: CCCCCCCCCCCCCCCCCC(=O)N[C@@H](CCC(=O)N[C@@H](CCC(=O)NCCCC[C@H](NC(=O)[C@H](C)NC(=O)[C@H](C)NC(=O)[C@H](CCC(=O)O)NC(=O)CNC(=O)[C@H](CCC(=O)O)NC(=O)[C@H](CC(C)C)NC(=O)[C@](C)(Cc1ccccc1)NC(=O)[C@H](CO)NC(=O)[C@](C)(CO)NC(=O)[C@@H](NC(=O)[C@H](CC(=O)O)NC(=O)[C@H](CO)NC(=O)[C@@H](NC(=O)[C@](C)(Cc1ccccc1)NC(=O)[C@H](CO)NC(=O)CNC(=O)[C@H](CCC(=O)O)NC(=O)C(C)(C)NC(=O)[C@@H](N)Cc1c[nH]cn1)[C@@H](C)O)C(C)C)C(=O)N[C@@H](CCC(=O)O)C(=O)N[C@@](C)(Cc1ccccc1)C(=O)N[C@H](C(=O)N[C@@H](C)C(=O)N[C@@](C)(Cc1ccccc1)C(=O)N[C@H](C(=O)N[C@H](C(=O)N[C@@](C)(CCCCN)C(=O)NCC(=O)NCC(N)=O)C(C)C)C(C)C)[C@@H](C)CC)C(=O)O)C(=O)O
B3: SEQ ID NO 148 (peptide)
peptide: H[Aib]EGS[αMeF]TSDV[αMeS]S[αMeF]LEGEAAK([γGlu-γGlu-γGlu-Stearoyl])E[αMeF]IA[αMeF]VV[αMeK]GG-NH2
modifications: N-terminus assumed
SMILES: CCCCCCCCCCCCCCCCCC(=O)N[C@@H](CCC(=O)N[C@@H](CCC(=O)N[C@@H](CCC(=O)NCCCC[C@H](NC(=O)[C@H](C)NC(=O)[C@H](C)NC(=O)[C@H](CCC(=O)O)NC(=O)CNC(=O)[C@H](CCC(=O)O)NC(=O)[C@H](CC(C)C)NC(=O)[C@](C)(Cc1ccccc1)NC(=O)[C@H](CO)NC(=O)[C@](C)(CO)NC(=O)[C@@H](NC(=O)[C@H](CC(=O)O)NC(=O)[C@H](CO)NC(=O)[C@@H](NC(=O)[C@](C)(Cc1ccccc1)NC(=O)[C@H](CO)NC(=O)CNC(=O)[C@H](CCC(=O)O)NC(=O)C(C)(C)NC(=O)[C@@H](N)Cc1c[nH]cn1)[C@@H](C)O)C(C)C)C(=O)N[C@@H](CCC(=O)O)C(=O)N[C@@](C)(Cc1ccccc1)C(=O)N[C@H](C(=O)N[C@@H](C)C(=O)N[C@@](C)(Cc1ccccc1)C(=O)N[C@H](C(=O)N[C@H](C(=O)N[C@@](C)(CCCCN)C(=O)NCC(=O)NCC(N)=O)C(C)C)C(C)C)[C@@H](C)CC)C(=O)O)C(=O)O)C(=O)O
B4: SEQ ID NO 146 (peptide)
peptide: H[Aib]EGS[αMeF]TSDV[αMeS]S[αMeF]LEGEAAK([γGlu-Stearoyl])E[αMeF]IA[αMeF]VV[αMeK]GG-NH2
modifications: N-terminus assumed
SMILES: CCCCCCCCCCCCCCCCCC(=O)N[C@@H](CCC(=O)NCCCC[C@H](NC(=O)[C@H](C)NC(=O)[C@H](C)NC(=O)[C@H](CCC(=O)O)NC(=O)CNC(=O)[C@H](CCC(=O)O)NC(=O)[C@H](CC(C)C)NC(=O)[C@](C)(Cc1ccccc1)NC(=O)[C@H](CO)NC(=O)[C@](C)(CO)NC(=O)[C@@H](NC(=O)[C@H](CC(=O)O)NC(=O)[C@H](CO)NC(=O)[C@@H](NC(=O)[C@](C)(Cc1ccccc1)NC(=O)[C@H](CO)NC(=O)CNC(=O)[C@H](CCC(=O)O)NC(=O)C(C)(C)NC(=O)[C@@H](N)Cc1c[nH]cn1)[C@@H](C)O)C(C)C)C(=O)N[C@@H](CCC(=O)O)C(=O)N[C@@](C)(Cc1ccccc1)C(=O)N[C@H](C(=O)N[C@@H](C)C(=O)N[C@@](C)(Cc1ccccc1)C(=O)N[C@H](C(=O)N[C@H](C(=O)N[C@@](C)(CCCCN)C(=O)NCC(=O)NCC(N)=O)C(C)C)C(C)C)[C@@H](C)CC)C(=O)O
B5: SEQ ID NO 149 (peptide)
peptide: H[Aib]EGS[αMeF]TSDV[αMeS]S[αMeF]LEGEAAK([Ahx-Stearoyl])E[αMeF]IA[αMeF]VV[αMeK]GG-NH2
modifications: N-terminus assumed
SMILES: CCCCCCCCCCCCCCCCCC(=O)NCCCCCC(=O)NCCCC[C@H](NC(=O)[C@H](C)NC(=O)[C@H](C)NC(=O)[C@H](CCC(=O)O)NC(=O)CNC(=O)[C@H](CCC(=O)O)NC(=O)[C@H](CC(C)C)NC(=O)[C@](C)(Cc1ccccc1)NC(=O)[C@H](CO)NC(=O)[C@](C)(CO)NC(=O)[C@@H](NC(=O)[C@H](CC(=O)O)NC(=O)[C@H](CO)NC(=O)[C@@H](NC(=O)[C@](C)(Cc1ccccc1)NC(=O)[C@H](CO)NC(=O)CNC(=O)[C@H](CCC(=O)O)NC(=O)C(C)(C)NC(=O)[C@@H](N)Cc1c[nH]cn1)[C@@H](C)O)C(C)C)C(=O)N[C@@H](CCC(=O)O)C(=O)N[C@@](C)(Cc1ccccc1)C(=O)N[C@H](C(=O)N[C@@H](C)C(=O)N[C@@](C)(Cc1ccccc1)C(=O)N[C@H](C(=O)N[C@H](C(=O)N[C@@](C)(CCCCN)C(=O)NCC(=O)NCC(N)=O)C(C)C)C(C)C)[C@@H](C)CC

These binders were tested against glucagon receptor (GCGR) (human, UniProt P47871 26-477) (assay: cell-based or functional assay).
glucagon receptor (GCGR), sequence (P47871 26-477): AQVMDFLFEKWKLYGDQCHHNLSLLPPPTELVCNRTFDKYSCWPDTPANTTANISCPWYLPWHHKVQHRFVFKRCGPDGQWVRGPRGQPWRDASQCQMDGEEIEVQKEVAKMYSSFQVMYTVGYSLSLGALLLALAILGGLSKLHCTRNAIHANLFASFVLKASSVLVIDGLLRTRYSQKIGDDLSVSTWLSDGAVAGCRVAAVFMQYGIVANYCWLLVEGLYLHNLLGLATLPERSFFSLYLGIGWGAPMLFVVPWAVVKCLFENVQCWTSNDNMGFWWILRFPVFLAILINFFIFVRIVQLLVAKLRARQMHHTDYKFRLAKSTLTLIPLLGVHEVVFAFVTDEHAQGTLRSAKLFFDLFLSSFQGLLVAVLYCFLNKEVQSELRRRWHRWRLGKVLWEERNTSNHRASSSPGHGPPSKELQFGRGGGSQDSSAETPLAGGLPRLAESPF

| Binder | cAMP Primary assay EC50 Gluc-R [nM] | cAMP Primary assay EC50 Gluc-R (2nd) [nM] |
| --- | --- | --- |
| B1 | 27 | 27 |
| B2 | 27 | 27 |
| B3 | 26 | 26 |
| B4 | 28 | 28 |
| B5 | 28 | 28 |

Each binder was assayed against T1, glucose-dependent insulinotropic … (assay: cell-based or functional assay).

| Binder | cAMP Primary assay EC50 GIP-R [nM] | cAMP Primary assay EC50 GIP-R (2nd) [nM] |
| --- | --- | --- |
| B1 | 27 | 27 |
| B2 | 27 | 27 |
| B3 | 26 | 26 |
| B4 | 28 | 28 |
| B5 | 28 | 28 |

What follows are binders tested against GLP-1 receptor (GLP-1R) (human, UniProt P43220 24-463) (assay: cell-based or functional assay).

| Binder | cAMP Mean pM GLP-1R [pM] | cAMP Primary assay EC50 GLP-1R n1 [nM] | cAMP Primary assay EC50 GLP-1R n2 [nM] |
| --- | --- | --- | --- |
| B1 | 25.4 | 0.028 | 0.022 |
| B2 | 23.2 | 0.032 | 0.014 |
| B3 | 12.1 | 0.016 | 0.0087 |
| B4 | 69 | 0.096 | 0.042 |
| B5 | 66.2 | 0.081 | 0.051 |

What follows are binders tested against T2, GLP-1R (INS1e assay) (assay: cell-based or functional assay).

| Binder | INS1e assay EC50 GLP-1 R n1 [nM] | INS1e assay EC50 GLP-1 R n2 [nM] | INS1e assay EC50 Mean pM GLP-1R [pM] |
| --- | --- | --- | --- |
| H[Aib]EGS[αMeF]TSDV[αMeS]S[αMeF]LEGEAA[αMeK]E[αMeF]IA[αMeF]VVK([PEG2′-PEG2′-Stearoyl])GG-NH2 [SEQ ID NO 198] | 1.38 | 0.89 | 1140 |
| H[Aib]EGS[αMeF]TSDV[αMeS]S[αMeF]LEGEAA[αMeK]E[αMeF]IA[αMeF]VVK([PEG2′-PEG2′-PEG2′-Stearoyl])GG-NH2 [SEQ ID NO 199] | 0.787 | 2.13 | 1460 |
